Assay results published in patent US20030199679A1.

Columns and labels:
[1] = target: recombinant human TNF-alpha (human) (UniProt P01375); test: Scatchard analysis, 125I-TNF and unlabelled TNF in solution, antibody taken out with anti-IgG agarose beads
[2] = target: recombinant human TNF-alpha (human) (UniProt P01375); test: standard assay of binding to human TNFα

How did the Kd [1] turn out when “CDP571 (CDR-grafted CB0010, grafted light chain gEU and grafted heavy chain 2hEUg) (antibody)” was run?
The Kd was 0.14 nM.

What about the Kd [2] of the same substance?
The Kd was 0.087 nM.
